Measurements as given in the Human Domainome abundance scans (Beltran et al. 2025).

B1: GA-binding protein alpha chain, residues 172 to 250; numbered along this chain, Q06546 (parent)
chain: GYRKEQERLGIPYDPIQWSTDQVLHWVVWVMKEFSMTDIDLTTLNISGRELCSLNQEDFFQRVPRGEILWSHLELLRKY

Variants of: B1
Experiment: abundance fitness (aPCA) (normalised: wild type 0, dead -1); higher = more abundant; growth selection in yeast, the domain comes from the species named
Settings: Homo sapiens

Abundance fitness of substitutions, site by site:
P12: I -0.912 | S -0.229 | A -0.3 | N -0.542 | D -0.34 | G -0.577 | R -0.969 | F -0.949 | Y -0.707 | M -0.903 | T -0.56 | W -0.98 | L -0.955 | E -0.478 | V -0.724 | C -0.494 | K -0.762
R8: I -0.222 | F -0.368 | D -0.185 | H -0.21 | K -0.024 | E -0.054 | Q -0.158 | C -0.355 | A -0.056 | L -0.06 | M -0.133 | P -0.596 | T -0.117 | G -0.363 | N -0.191
E7: S -0.163 | D 0.031 | T -0.09 | P -0.891 | G -0.315 | R -0.141 | K -0.494 | Y -0.282 | W -0.288 | F -0.252 | V -0.172 | A -0.071 | M -0.098 | N -0.177 | I -0.161 | Q -0.072
Q6: N -0.844 | L 0.037 | C -0.118 | E -0.26 | F -0.184 | I 0.078 | H -0.852 | W -0.498 | A -0.076 | T -0.172 | K -0.96 | V -0.069 | S -0.221 | P -0.739 | M -0.015 | D -0.678
Y13: A -0.085 | E 0 | D -0.064 | C -0.138
K4: I 0.054 | T -0.067 | E -0.072 | Q -0.106 | P -0.326 | S -0.026 | V -0.045 | D -0.104 | N -0.032 | R -0.029 | H -0.003 | C -0.27 | F -0.131 | W -0.12 | Y -0.1 | A -0.063
R3: Q -0.05 | L -0.182 | W -0.081 | H -0.098 | D -0.499 | Y -0.19 | M -0.158 | E -0.004 | N -0.373 | V -0.262 | G -0.176 | F -0.058 | S -0.214 | P -0.517 | K -0.083
L9: N -0.08 | D -0.368 | Q 0.016 | A -0.08 | G -0.373 | K -0.061 | Y -0.133 | T -0.11 | S -0.174 | E -0.117 | P -0.815 | I -0.081 | R -0.047 | V -0.013 | M 0.011
E5: S -0.742 | P -0.958 | K -0.806 | Y -0.149 | D -0.371 | T -0.347 | C -0.288 | W -0.442 | I 0.004 | V -0.093 | N -0.897 | M -0.281 | Q -0.485 | H -0.354 | R -0.913 | F -0.419 | A -0.608 | L -0.45
G10: R -0.085 | N 0.028 | F -0.272 | M -0.096 | A -0.068 | L -0.158 | K -0.041 | V -0.383 | H -0.07 | C -0.079 | Q 0.01 | D -0.196 | T -0.411 | P -0.978 | W -0.464 | E -0.096 | I -0.562
I11: E -0.924 | A -0.651 | N -0.818 | H -0.644 | T -0.75 | C -0.487 | K -1.21 | Q -1.01 | S -0.842 | F -0.263 | R -0.808 | M -0.312 | G -0.752 | Y -0.238 | V -0.342 | P -0.928 | D -0.921 | L -0.191
